Results as given in ChEMBL document CHEMBL2203217, “Prohormone-substrate peptide sequence recognition by peptidylglycine α-amidating monooxygenase and its reflection in increased glycolate inhibitor potency” (Bioorg Med Chem Lett, 2012).

Legend:
[1] = substrate: CC(=O)N[C@@H](Cc1ccccc1)C(=O)NCC(=O)O; assay: (§1) Binding affinity to secreted PAM in human DMS53 cell culture medium after 2 hrs by HPLC analysis; conditions: DMS-53
[2] = substrate: CC(=O)N1CCC[C@H]1C(=O)N[C@@H](CC(C)C)C(=O)N[C@@H](Cc1ccccc1)C(=O)NCC(=O)O; assay: as §1; conditions: DMS-53
[3] = substrate: N[C@@H](Cc1ccccc1)C(=O)NCC(=O)O; assay: as §1; conditions: DMS-53
[4] = substrate: CC(=O)NCC(=O)O; assay: as §1; conditions: DMS-53
[5] = substrate: CC[C@H](C)[C@H](NC(=O)[C@H](C)NC(=O)[C@@H](NC(=O)[C@H](CCC(N)=O)NC(=O)[C@@H]1CCCN1C(=O)[C@H](Cc1ccccc1)NC(=O)[C@@H](NC(=O)[C@H](Cc1cnc[nH]1)NC(=O)[C@H](Cc1ccccc1)NC(=O)[C@H](CCCCN)NC(=O)[C@H](CC(N)=O)NC(=O)[C@H](Cc1ccccc1)NC(=O)[C@H](CC(=O)O)NC(=O)[C@H](CCC(N)=O)NC(=O)[C@@H](NC(=O)[C@H](Cc1ccc(O)cc1)NC(=O)[C@@H](NC(=O)CNC(=O)[C@H](CC(C)C)NC(=O)[C@H](CCSC)NC(=O)[C@@H]1CSSC[C@H](N)C(=O)NCC(=O)N[C@@H](CC(N)=O)C(=O)N[C@@H](CC(C)C)C(=O)N[C@@H](CO)C(=O)N[C@@H]([C@@H](C)O)C(=O)N1)[C@@H](C)O)[C@@H](C)O)[C@@H](C)O)[C@@H](C)O)C(=O)NCC(=O)N[C@H](C(=O)NCC(=O)N[C@@H](C)C(=O)N[C@@H](Cc1ccccc1)C(=O)NCC(=O)O)C(C)C; assay: as §1; conditions: DMS-53
[6] = substrate: C[C@H](NC(=O)CN)C(=O)N[C@@H](Cc1ccccc1)C(=O)NCC(=O)O; assay: as §1; conditions: DMS-53
[7] = substrate: CC[C@H](C)[C@@H]1NC(=O)[C@H](Cc2ccc(O)cc2)NC(=O)[C@@H](N)CSSC[C@@H](C(=O)N2CCC[C@H]2C(=O)N[C@@H](CC(C)C)C(=O)NCC(=O)NCC(=O)O)NC(=O)[C@H](CC(N)=O)NC(=O)[C@H](CCC(N)=O)NC1=O; assay: as §1; conditions: DMS-53
[8] = substrate: CC(C)[C@H](N)C(=O)NCC(=O)N[C@@H](C)C(=O)N1CCC[C@H]1C(=O)NCC(=O)O; assay: as §1; conditions: DMS-53
[9] = substrate: O=C(O)CNC(=O)[C@@H]1CCCN1; assay: as §1; conditions: DMS-53
[10] = substrate: CC(=O)N[C@@H](CC(C)C)C(=O)N[C@@H](Cc1ccccc1)C(=O)NCC(=O)O; assay: as §1; conditions: DMS-53
[11] = substrate: CC(=O)NCC(=O)NCC(=O)O; assay: as §1; conditions: DMS-53
[12] = substrate: C[C@H](NC(=O)CN)C(=O)N1CCC[C@H]1C(=O)NCC(=O)O; assay: as §1; conditions: DMS-53
[13] = substrate: C[C@H](N)C(=O)N1CCC[C@H]1C(=O)NCC(=O)O; assay: as §1; conditions: DMS-53
[14] = substrate: CC(=O)N1CCC[C@H]1C(=O)N[C@@H](CC(C)C)C(=O)NCC(=O)NCC(=O)O; assay: as §1; conditions: DMS-53
[15] = substrate: C[C@H](N)C(=O)N[C@@H](Cc1ccccc1)C(=O)NCC(=O)O; assay: as §1; conditions: DMS-53
[16] = substrate: CC[C@H](C)[C@H](NC(=O)[C@H](C)NC(=O)[C@@H](NC(=O)[C@H](CCC(N)=O)NC(=O)[C@@H]1CCCN1C(=O)[C@H](Cc1ccccc1)NC(=O)[C@@H](NC(=O)[C@H](Cc1cnc[nH]1)NC(=O)[C@H](Cc1ccccc1)NC(=O)[C@H](CCCCN)NC(=O)[C@H](CC(N)=O)NC(=O)[C@H](Cc1ccccc1)NC(=O)[C@H](CC(=O)O)NC(=O)[C@H](CCC(N)=O)NC(=O)[C@@H](NC(=O)[C@H](Cc1ccc(O)cc1)NC(=O)[C@@H](NC(=O)CNC(=O)[C@H](CC(C)C)NC(=O)[C@H](CCSC)NC(=O)[C@@H]1CSSC[C@H](N)C(=O)NCC(=O)N[C@@H](CC(N)=O)C(=O)N[C@@H](CC(C)C)C(=O)N[C@@H](CO)C(=O)N[C@@H]([C@@H](C)O)C(=O)N1)[C@@H](C)O)[C@@H](C)O)[C@@H](C)O)[C@@H](C)O)C(=O)NCC(=O)N[C@H](C(=O)NCC(=O)N[C@@H](C)C(=O)N1CCC[C@H]1C(=O)NCC(=O)O)C(C)C; assay: as §1; conditions: DMS-53
[17] = substrate: CC(=O)N[C@@H](CC(C)C)C(=O)NCC(=O)NCC(=O)O; assay: as §1; conditions: DMS-53
[18] = substrate: CC(C)[C@H](N)C(=O)NCC(=O)N[C@@H](C)C(=O)N[C@@H](Cc1ccccc1)C(=O)NCC(=O)O; assay: as §1; conditions: DMS-53
[19] = substrate: CC[C@H](C)[C@@H]1NC(=O)[C@H](Cc2ccc(O)cc2)NC(=O)[C@@H](N)CSSC[C@@H](C(=O)N2CCC[C@H]2C(=O)N[C@@H](CC(C)C)C(=O)N[C@@H](Cc2ccccc2)C(=O)NCC(=O)O)NC(=O)[C@H](CC(N)=O)NC(=O)[C@H](CCC(N)=O)NC1=O; assay: as §1; conditions: DMS-53
[20] = substrate: CC(=O)N[C@@H](Cc1ccccc1)C(=O)NCC(=O)O; assay: (§2) Binding affinity to PAM in human DMS53 cells after 2 hrs by HPLC analysis; type: cell-based
[21] = substrate: CC(=O)N1CCC[C@H]1C(=O)N[C@@H](CC(C)C)C(=O)N[C@@H](Cc1ccccc1)C(=O)NCC(=O)O; assay: as §2; type: cell-based
[22] = substrate: N[C@@H](Cc1ccccc1)C(=O)NCC(=O)O; assay: as §2; type: cell-based
[23] = substrate: CC(=O)NCC(=O)O; assay: as §2; type: cell-based
[24] = substrate: CC[C@H](C)[C@H](NC(=O)[C@H](C)NC(=O)[C@@H](NC(=O)[C@H](CCC(N)=O)NC(=O)[C@@H]1CCCN1C(=O)[C@H](Cc1ccccc1)NC(=O)[C@@H](NC(=O)[C@H](Cc1cnc[nH]1)NC(=O)[C@H](Cc1ccccc1)NC(=O)[C@H](CCCCN)NC(=O)[C@H](CC(N)=O)NC(=O)[C@H](Cc1ccccc1)NC(=O)[C@H](CC(=O)O)NC(=O)[C@H](CCC(N)=O)NC(=O)[C@@H](NC(=O)[C@H](Cc1ccc(O)cc1)NC(=O)[C@@H](NC(=O)CNC(=O)[C@H](CC(C)C)NC(=O)[C@H](CCSC)NC(=O)[C@@H]1CSSC[C@H](N)C(=O)NCC(=O)N[C@@H](CC(N)=O)C(=O)N[C@@H](CC(C)C)C(=O)N[C@@H](CO)C(=O)N[C@@H]([C@@H](C)O)C(=O)N1)[C@@H](C)O)[C@@H](C)O)[C@@H](C)O)[C@@H](C)O)C(=O)NCC(=O)N[C@H](C(=O)NCC(=O)N[C@@H](C)C(=O)N[C@@H](Cc1ccccc1)C(=O)NCC(=O)O)C(C)C; assay: as §2; type: cell-based
[25] = substrate: C[C@H](NC(=O)CN)C(=O)N[C@@H](Cc1ccccc1)C(=O)NCC(=O)O; assay: as §2; type: cell-based
[26] = substrate: CC[C@H](C)[C@@H]1NC(=O)[C@H](Cc2ccc(O)cc2)NC(=O)[C@@H](N)CSSC[C@@H](C(=O)N2CCC[C@H]2C(=O)N[C@@H](CC(C)C)C(=O)NCC(=O)NCC(=O)O)NC(=O)[C@H](CC(N)=O)NC(=O)[C@H](CCC(N)=O)NC1=O; assay: as §2; type: cell-based
[27] = substrate: CC(C)[C@H](N)C(=O)NCC(=O)N[C@@H](C)C(=O)N1CCC[C@H]1C(=O)NCC(=O)O; assay: as §2; type: cell-based
[28] = substrate: O=C(O)CNC(=O)[C@@H]1CCCN1; assay: as §2; type: cell-based
[29] = substrate: CC(=O)N[C@@H](CC(C)C)C(=O)N[C@@H](Cc1ccccc1)C(=O)NCC(=O)O; assay: as §2; type: cell-based
[30] = substrate: CC(=O)NCC(=O)NCC(=O)O; assay: as §2; type: cell-based
[31] = substrate: C[C@H](NC(=O)CN)C(=O)N1CCC[C@H]1C(=O)NCC(=O)O; assay: as §2; type: cell-based
[32] = substrate: C[C@H](N)C(=O)N1CCC[C@H]1C(=O)NCC(=O)O; assay: as §2; type: cell-based
[33] = substrate: CC(=O)N1CCC[C@H]1C(=O)N[C@@H](CC(C)C)C(=O)NCC(=O)NCC(=O)O; assay: as §2; type: cell-based
[34] = substrate: C[C@H](N)C(=O)N[C@@H](Cc1ccccc1)C(=O)NCC(=O)O; assay: as §2; type: cell-based
[35] = substrate: CC[C@H](C)[C@H](NC(=O)[C@H](C)NC(=O)[C@@H](NC(=O)[C@H](CCC(N)=O)NC(=O)[C@@H]1CCCN1C(=O)[C@H](Cc1ccccc1)NC(=O)[C@@H](NC(=O)[C@H](Cc1cnc[nH]1)NC(=O)[C@H](Cc1ccccc1)NC(=O)[C@H](CCCCN)NC(=O)[C@H](CC(N)=O)NC(=O)[C@H](Cc1ccccc1)NC(=O)[C@H](CC(=O)O)NC(=O)[C@H](CCC(N)=O)NC(=O)[C@@H](NC(=O)[C@H](Cc1ccc(O)cc1)NC(=O)[C@@H](NC(=O)CNC(=O)[C@H](CC(C)C)NC(=O)[C@H](CCSC)NC(=O)[C@@H]1CSSC[C@H](N)C(=O)NCC(=O)N[C@@H](CC(N)=O)C(=O)N[C@@H](CC(C)C)C(=O)N[C@@H](CO)C(=O)N[C@@H]([C@@H](C)O)C(=O)N1)[C@@H](C)O)[C@@H](C)O)[C@@H](C)O)[C@@H](C)O)C(=O)NCC(=O)N[C@H](C(=O)NCC(=O)N[C@@H](C)C(=O)N1CCC[C@H]1C(=O)NCC(=O)O)C(C)C; assay: as §2; type: cell-based
[36] = substrate: CC(=O)N[C@@H](CC(C)C)C(=O)NCC(=O)NCC(=O)O; assay: as §2; type: cell-based
[37] = substrate: CC(C)[C@H](N)C(=O)NCC(=O)N[C@@H](C)C(=O)N[C@@H](Cc1ccccc1)C(=O)NCC(=O)O; assay: as §2; type: cell-based
[38] = substrate: CC[C@H](C)[C@@H]1NC(=O)[C@H](Cc2ccc(O)cc2)NC(=O)[C@@H](N)CSSC[C@@H](C(=O)N2CCC[C@H]2C(=O)N[C@@H](CC(C)C)C(=O)N[C@@H](Cc2ccccc2)C(=O)NCC(=O)O)NC(=O)[C@H](CC(N)=O)NC(=O)[C@H](CCC(N)=O)NC1=O; assay: as §2; type: cell-based

B1: Peptidyl-glycine alpha-amidating monooxygenase (Homo sapiens), P19021 (protein)
chain: MAGRVPSLLVLLVFPSSCLAFRSPLSVFKRFKETTRPFSNECLGTTRPVVPIDSSDFALDIRMPGVTPKQSDTYFCMSMRIPVDEEAFVIDFKPRASMDTVHHMLLFGCNMPSSTGSYWFCDEGTCTDKANILYAWARNAPPTRLPKGVGFRVGGETGSKYFVLQVHYGDISAFRDNNKDCSGVSLHLTRLPQPLIAGMYLMMSVDTVIPAGEKVVNSDISCHYKNYPMHVFAYRVHTHHLGKVVSGYRVRNGQWTLIGRQSPQLPQAFYPVGHPVDVSFGDLLAARCVFTGEGRTEATHIGGTSSDEMCNLYIMYYMEAKHAVSFMTCTQNVAPDMFRTIPPEANIPIPVKSDMVMMHEHHKETEYKDKIPLLQQPKREEEEVLDQGDFYSLLSKLLGEREDVVHVHKYNPTEKAESESDLVAEIANVVQKKDLGRSDAREGAEHERGNAILVRDRIHKFHRLVSTLRPPESRVFSLQQPPPGEGTWEPEHTGDFHMEEALDWPGVYLLPGQVSGVALDPKNNLVIFHRGDHVWDGNSFDSKFVYQQIGLGPIEEDTILVIDPNNAAVLQSSGKNLFYLPHGLSIDKDGNYWVTDVALHQVFKLDPNNKEGPVLILGRSMQPGSDQNHFCQPTDVAVDPGTGAIYVSDGYCNSRIVQFSPSGKFITQWGEESSGSSPLPGQFTVPHSLALVPLLGQLCVADRENGRIQCFKTDTKEFVREIKHSSFGRNVFAISYIPGLLFAVNGKPHFGDQEPVQGFVMNFSNGEIIDIFKPVRKHFDMPHDIVASEDGTVYIGDAHTNTVWKFTLTEKLEHRSVKKAGIEVQEIKEAEAVVETKMENKPTSSELQKMQEKQKLIKEPGSGVPVVLITTLLVIPVVVLLAIAIFIRWKKSRAFGDSEHKLETSSGRVLGRFRGKGSGGLNLGNFFASRKGYSRKGFDRLSTEGSDQEKEDDGSESEEEYSAPLPALAPSSS
Km [1]: 16 µM
Km [2]: 7 µM
Km [3]: 6500 µM
Km [4]: 9900 µM
Km [5]: 14 µM
Km [6]: 35 µM
Km [7]: 190 µM
Km [8]: 960 µM
Km [9]: 880 µM
Km [10]: 11 µM
Km [11]: 1200 µM
Km [12]: 3000 µM
Km [13]: 4000 µM
Km [14]: 550 µM
Km [15]: 200 µM
Km [16]: 200 µM
Km [17]: 860 µM
Km [18]: 18 µM
Km [19]: 27 µM
Km [20]: 6 µM
Km [21]: 6 µM
Km [22]: 6000 µM
Km [23]: 7500 µM
Km [24]: 8 µM
Km [25]: 40 µM
Km [26]: 36 µM
Km [27]: 1000 µM
Km [28]: 980 µM
Km [29]: 8 µM
Km [30]: 1600 µM
Km [31]: 3000 µM
Km [32]: 5000 µM
Km [33]: 660 µM
Km [34]: 180 µM
Km [35]: 200 µM
Km [36]: 860 µM
Km [37]: 8 µM
Km [38]: 5 µM
